Assay results as given in US20070004634A1 (published 2007).
Values joined by “and” are separate entries in the source; they are usually repeats but may differ in a detail not shown here. Identical values can stand only once. Positions of bridges follow the written chain, without caps; N, C: chain ends. No end group written: not given here. MBP = maltose binding protein (pMAL-c2)

B1: D112-12-RP30-IGF (peptide)
chain: ADYKDCWARPCGDAANFYDWFVQQASKKGGSGGSGGSGGSSFYSCLESLVNGGAERSDGQWEGCRAAAGAPVPYPDPLEPRPG
B2: 20C-3-F6-IGFR (peptide)
peptide: DRDFCRFYERLTALVGGQVDGGWPC
B3: B6Hα-2-C7-IR (peptide)
peptide: RGIVAMVEATEVGSDHDPFYHKLSELVQGS
B4: B6Hα-2-D6-IR (peptide)
peptide: GRTMAVMAAGGPDDPFYHKLSELVQGG
B5: 20E2B-3-D11-IGFR (peptide)
peptide: LGVTDGFYAALGYLIHGVGQF
B6: H2CA-3-E11-IGFR (peptide)
peptide: HLADGQFHEKFYDWFERQISSRCNDC
B7: B6Hα-1-B5-IR (peptide)
peptide: CCTTEMVVMDARDDPFYHKLSELVTGG
B8: 20E2B-3-C2-IGFR (peptide)
peptide: GNGDGMFYQLLSLLVGRDMHV
B9: B6Hα-2-D1-IR (peptide)
peptide: GCEVIVEEGDSADPFYHKLSELCQGS
B10: B6Hα-1-A2-IR (peptide)
peptide: RGCNDDGGKGWSDDPFYHKLSELICGG
B11: A6L-0-E6-IR (peptide)
peptide: YRGMLVLGRSSDGAGKVAFERPARIGQTVFAVNFYDWFV
B12: 20E2B-3-D8-IGFR (peptide)
peptide: GGTEVDFYRALERLVRGQLGL
B13: 20E2B-3-E8-IFGR (peptide)
peptide: LRIANLFYQRLWDLAFGGGG
B14: 20E2Bβ-4-G7-IR (peptide)
peptide: LQPCSGFYECIERLIGVKLSG
modifications: not fully specified; cysteine pairing not given here
B15: 20E2B-4-F9-IGFR (peptide)
peptide: QPDHSYFYSLLQELVGSEERL
B16: NNRPγ-4-A1-IR (peptide)
peptide: IIGGFYSYFNSVLRLGT
modifications: not fully specified
B17: 20E2A-3-D10-IGFR (peptide)
peptide: MMVVDGFYDALHQLVVAQSLG
B18: H2CA-4-H9-IGFR (peptide)
peptide: RGAVAGFHDQFYDWFDRQVSRVHKFG
B19: B6Hα-4-G8-IR (peptide)
peptide: GGTKAVAKVGTRDDPFYHKLSELLQGS
B20: B6Hα-3-F10-IR (peptide)
peptide: GCVVEWQKWHGASDPFYHKLSELGGCS
B21: 20E2B-3-C8-IGFR (peptide)
peptide: QPAPDGFYSALMKLIGRGGVS
B22: A6L-0-H3-IR (peptide)
peptide: YRGMLVLGRISGGAGKAASERPARIGQKVSAVNFYDWFV
B23: B6Hα-3-E9-IR (peptide)
peptide: RCEEKQAEVGPSSDPFYHKMSELLGCR
B24: 20C-3-A1-IGFR (peptide)
peptide: SSYGCDGFYLMLFSLGLVASQELEC
B25: B6Hα-3-F11-IR (peptide)
peptide: RGMKEEVLVGGSTDPFYHKLSELLQGS
B26: MBP fusion 435 (H2C-3aa-H2C-3aa-H2C) (other, not shown: large carriers; small tags and cut ends)
chain: NNNNLGIEGRISEFIEGRAQPAMAFHENFYDWFVRQVSGGSFHENFYDWFVRQVSGGSFHENFYDWFVRQVSAAAGAPVPYPDPLEPRAA
modifications: N-terminus of the given chain is fused to the C-terminus of MBP, which is not given
notes: also called RB435
B27: MBP fusion 463 (H2C-3aa-H2C) (other, not shown: large carriers; small tags and cut ends)
chain: NNNNLGIEGRISEFIEGRAQPAMAFHENFYDWFVRQVSGGSFHENFYDWFVRQVSAAAGAPVPYPDPLEPRAA
modifications: N-terminus of the given chain is fused to the C-terminus of MBP, which is not given
notes: also called RB463
B28: H2C-A-H6 (peptide)
peptide: VGRASGFPENFYDWFGRQLSLQSGEQ
B29: C1 (peptide)
peptide: CWARPCGDAANFYDWFVQQAS
notes: also called C1 (D112); D112
B30: RP9 (peptide)
peptide: GSLDESFYDWFERQLG
B31: RP6 (peptide)
peptide: TFYSCLASLLTGTPQPNRGPWERCR
B32: G33 (peptide)
peptide: GIISQSCPESFYDWFAGQVSDPWWCW
B33: RP30-IGF-12-D112 (peptide)
chain: ADYKDSFYSCLESLVNGGAERSDGQWEGCRGGSGGSGGSGGSCWARPCGDAANFYDWFVQQASKKAAAGAPVPYPDPLEPRPG
B34: RP56 (peptide)
peptide: EGYSWLRDVLMEKQAQLKREGSVGRQE
B35: D815 (peptide)
peptide: WLDQERAWLWCEISGRGCLS
B36: RP6KK (peptide)
peptide: TFYSCLASLLTGTPQPNRGPWERCRKK
modifications: disulfide 5-24 (inferred)
B37: MBP fusion 464 (LF-H2C) (other, not shown: large carriers; small tags and cut ends)
chain: {MBP}-NNNNLGIEGRISEFIEGRDYKDDDDKFHENFYDWFVRQVSAAGAPVPYPDPLEPRAA
notes: LF = long FLAG; also called RB464
B38: D112-12-D112 (peptide)
chain: ADYKDCWARPCGDAANFYDWFVQQASKKGGSGGSGGSGGSCWARPCGDAANFYDWFVQQASKKAAAGAPVPYPDPLEPRPG

molecular target: T1, His-tagged soluble recombinant human IGF-IR (srhIGF-1R-his) (human, UniProt P08069 31-935); experiment: ALPHAScreen competition against b-hIGF-1 on srhIGF-1R-his
T1 construct: extracellular domain; Bought construct; not shown: His tag

IC50 [nM]	Binder
170	B1

molecular target: T2, soluble IGF-1R (recombinant human IGF-1R extracellular domain, R&D Systems Cat. # 391-GR/CF) (human, UniProt P08069 31-935); experiment: phage ELISA
T2 construct: extracellular domain; LANCE Eu3+-labelled in the TR-FRET assays; also called sIGF-1R; rhIGF-1R

IGF-1R/IR ratio comparison	Binder
14.1	B2
6.7	B3
4.4	B4
7.6	B5
2.2	B6
20.5	B7
13.8	B8
4.2	B9
14.6	B10

molecular target: T3, soluble human insulin receptor-immunoglobulin heavy chain chimera (sIR-Fc; Bass et al., 1996) (human, UniProt P06213-2 28-944); experiment: phage ELISA
T3 construct: extracellular domain; also called soluble IR (Bass construct); Eu3+-sIR-Fc; not shown: immunoglobulin heavy chain constant domains per Bass et al., 1996
T3 sequence (P06213 other isoform, or with tags, fused parts or gaps mutant): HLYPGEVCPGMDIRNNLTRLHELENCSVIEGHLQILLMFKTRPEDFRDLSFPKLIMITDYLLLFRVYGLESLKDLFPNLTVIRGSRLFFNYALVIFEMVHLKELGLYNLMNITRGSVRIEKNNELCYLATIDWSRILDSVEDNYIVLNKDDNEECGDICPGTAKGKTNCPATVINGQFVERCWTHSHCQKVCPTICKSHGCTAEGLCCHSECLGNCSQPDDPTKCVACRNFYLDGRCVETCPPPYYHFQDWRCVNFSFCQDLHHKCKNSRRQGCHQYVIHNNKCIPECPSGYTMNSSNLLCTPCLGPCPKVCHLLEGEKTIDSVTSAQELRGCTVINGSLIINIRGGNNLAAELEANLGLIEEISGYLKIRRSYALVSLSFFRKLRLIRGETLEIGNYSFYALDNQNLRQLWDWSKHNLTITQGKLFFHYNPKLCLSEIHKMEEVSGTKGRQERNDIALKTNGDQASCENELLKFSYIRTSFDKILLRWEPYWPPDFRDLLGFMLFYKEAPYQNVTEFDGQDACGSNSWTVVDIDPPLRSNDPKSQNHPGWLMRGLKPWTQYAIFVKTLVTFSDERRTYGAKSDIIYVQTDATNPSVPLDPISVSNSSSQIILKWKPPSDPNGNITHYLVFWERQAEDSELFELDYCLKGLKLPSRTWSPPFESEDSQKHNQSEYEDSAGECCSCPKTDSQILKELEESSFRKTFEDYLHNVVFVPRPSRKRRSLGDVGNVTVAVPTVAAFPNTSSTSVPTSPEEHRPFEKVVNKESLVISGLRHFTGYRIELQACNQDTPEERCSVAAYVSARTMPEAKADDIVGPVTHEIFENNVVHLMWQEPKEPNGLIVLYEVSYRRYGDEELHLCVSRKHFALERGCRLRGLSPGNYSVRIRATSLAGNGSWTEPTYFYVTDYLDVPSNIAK

IR/IGF-1R ratio comparison	ratio over background	Binder
0.1	–	B2
0.1	–	B11
0.1	–	B12
0.1	–	B13
0.1	–	B14
0.1	–	B15
0.2	–	B16
0.3	–	B17
0.3	1.9	B18
0.3	–	B19
0.1	–	B5
0.2	–	B20
0.1	–	B21
0.1	2	B22
0.1	–	B23
0.1	–	B8
0.1	–	B24
0.2	–	B9
0.1	–	B25

molecular target: T4, human insulin receptor (HIR) (human, UniProt P06213-2 28-1370, limits assumed); experiment: HIR binding assay (method not restated)
T4 sequence (P06213 other isoform, or with tags, fused parts or gaps limits assumed): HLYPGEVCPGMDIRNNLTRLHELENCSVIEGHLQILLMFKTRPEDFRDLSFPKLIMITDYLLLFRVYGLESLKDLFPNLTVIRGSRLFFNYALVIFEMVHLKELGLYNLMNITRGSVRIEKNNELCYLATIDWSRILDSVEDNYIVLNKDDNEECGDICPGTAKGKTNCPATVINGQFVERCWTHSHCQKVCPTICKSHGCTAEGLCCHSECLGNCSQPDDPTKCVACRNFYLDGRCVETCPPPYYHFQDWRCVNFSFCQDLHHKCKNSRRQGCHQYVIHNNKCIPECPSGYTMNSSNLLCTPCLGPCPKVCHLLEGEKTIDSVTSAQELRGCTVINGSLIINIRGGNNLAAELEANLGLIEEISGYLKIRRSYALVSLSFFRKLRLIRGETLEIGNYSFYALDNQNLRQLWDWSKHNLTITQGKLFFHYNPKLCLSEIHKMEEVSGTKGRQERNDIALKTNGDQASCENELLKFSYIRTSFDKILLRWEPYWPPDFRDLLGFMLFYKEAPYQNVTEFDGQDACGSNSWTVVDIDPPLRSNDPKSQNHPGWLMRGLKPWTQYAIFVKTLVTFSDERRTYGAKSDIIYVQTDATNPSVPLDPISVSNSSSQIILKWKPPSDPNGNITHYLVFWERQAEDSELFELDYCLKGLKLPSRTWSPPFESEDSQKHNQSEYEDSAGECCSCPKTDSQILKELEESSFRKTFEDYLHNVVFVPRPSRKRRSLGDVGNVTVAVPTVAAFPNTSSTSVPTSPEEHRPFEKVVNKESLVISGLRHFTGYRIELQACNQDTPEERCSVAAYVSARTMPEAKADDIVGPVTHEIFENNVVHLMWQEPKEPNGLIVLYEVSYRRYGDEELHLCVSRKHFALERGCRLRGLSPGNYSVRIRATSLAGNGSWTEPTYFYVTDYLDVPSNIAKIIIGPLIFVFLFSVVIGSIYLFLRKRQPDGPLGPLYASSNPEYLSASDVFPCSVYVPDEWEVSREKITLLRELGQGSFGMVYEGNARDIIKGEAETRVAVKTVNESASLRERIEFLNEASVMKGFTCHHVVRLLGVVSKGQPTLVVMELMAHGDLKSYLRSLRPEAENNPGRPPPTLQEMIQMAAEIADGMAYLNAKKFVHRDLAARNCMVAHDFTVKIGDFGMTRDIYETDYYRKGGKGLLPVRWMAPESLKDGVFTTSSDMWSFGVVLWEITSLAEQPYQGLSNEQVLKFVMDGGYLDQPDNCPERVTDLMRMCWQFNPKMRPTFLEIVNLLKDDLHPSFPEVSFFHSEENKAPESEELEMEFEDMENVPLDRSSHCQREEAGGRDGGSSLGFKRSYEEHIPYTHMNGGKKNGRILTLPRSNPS

Kd [nM]	Binder
2000	B26
960	B27

molecular target: T1, His-tagged soluble recombinant human …; experiment: ALPHAScreen competition against b-hIGF-1 on srhIGF-1R-his; remark: another data set of the same source

IC50 [nM]	Binder
32000	B28
42	B29
970	B30
350	B31

molecular target: T1, His-tagged soluble recombinant human …; experiment: as above; remark: another data set of the same source

IC50 [nM]	Binder
600	B32
170	B1
1100	B33

molecular target: T1, His-tagged soluble recombinant human …; experiment: as above; remark: another data set of the same source

IC50 [nM]	Binder
60000	B34

molecular target: T5, IGF-1R on cells (MCF-7, MiaPaCa, FDC-P2 cells expressing human IGF-1R) (human, UniProt P08069 31-1367); experiment: cell-based or functional assay

Cellular EC50 (M), FDC-P2 cell proliferation	Binder
3e-06 M and 1e-06 M	B35
2e-06 M	B32

molecular target: T1, His-tagged soluble recombinant human …; experiment: ALPHAScreen competition against b-hIGF-1 on srhIGF-1R-his; remark: another data set of the same source

IC50 [nM]	Binder
32000	B28
180	B36

molecular target: T4, human insulin receptor (HIR); experiment: HIR binding assay of MBP fusions (method not restated)

Kd [nM]	Binder
2000	B26
39	B37
960	B27

molecular target: T5, IGF-1R on cells (MCF-7, MiaPaCa, FDC-P2 …); experiment: cell-based or functional assay; remark: another data set of the same source

Cellular IC50 (M), FDC-P2 cell proliferation [M]	Binder
3e-07	B28
4e-06	B29
2e-06	B30
1e-06	B36

molecular target: T5, IGF-1R on cells (MCF-7, MiaPaCa, FDC-P2 …); experiment: cell-based or functional assay; remark: another data set of the same source

Cellular IC50 (M), MCF-7 cell proliferation [M]	Binder
4e-07	B28
9e-06	B36

molecular target: T5, IGF-1R on cells (MCF-7, MiaPaCa, FDC-P2 …); experiment: cell-based or functional assay; remark: another data set of the same source

Cellular EC50 (M), MiaPaCa cell proliferation [M]	Binder
2.5e-06	B38
2.2e-06	B1

molecular target: T5, IGF-1R on cells (MCF-7, MiaPaCa, FDC-P2 …); experiment: cell-based or functional assay; remark: another data set of the same source

Cellular IC50 (M), MiaPaCa cell proliferation [M]	Binder
9.4e-06	B34

molecular target: T5, IGF-1R on cells (MCF-7, MiaPaCa, FDC-P2 …); experiment: cell-based or functional assay; remark: another data set of the same source

Cellular EC50 (M), MCF-7 cell proliferation [M]	Binder
3e-07	B32
3.5e-07	B38
2.5e-07	B1
4.1e-07	B33

molecular target: T1, His-tagged soluble recombinant human …; experiment: ALPHAScreen competition against b-hIGF-1 on srhIGF-1R-his; remark: another data set of the same source

IC50 [nM]	Binder
600	B32

molecular target: T6, soluble human insulin receptor-immunoglobulin heavy chain chimera (sIR-Fc) (human, UniProt P06213-2 28-944, limits assumed); experiment: FP competition against FITC-RP9 on sIR-Fc
T6 construct: extracellular domain; not shown: immunoglobulin heavy chain constant domains
T6 sequence (P06213 other isoform, or with tags, fused parts or gaps mutant limits assumed): as the sequence (P06213 other isoform, or with tags, fused parts or gaps mutant) above

IC50 [nM]	Binder
52	B29
